B1: Xpress-His G5_(845–1508) [not stated] / G5_(1–1508)-FLAG [not stated] (parent complex)
chain 1: ARSLLPLSTSLDHRSKEELHQDCLVLATAKHSRELNEDVSADVEERFHLGLFTDRATLYRMIDIEGKGHLENGHPELFHQLMLWKGDLKGVLQTAAERGELTDNLVAMAPAAGYHVWLWAVEAFAKQLCFQDQYVKAASHLLSIHKVYEAVELLKSNHFYREAIAIAKARLRPEDPVLKDLYLSWGTVLERDGHYAVAAKCYLGATCAYDAAKVLAKKGDAASLRTAAELAAIVGEDELSASLALRCAQELLLANNWVGAQEALQLHESLQGQRLVFCLLELLSRHLEEKQLSEGKSSSSYHTWNTGTEGPFVERVTAVWKSIFSLDTPEQYQEAFQKLQNIKYPSATNNTPAKQLLLHICHDLTLAVLSQQMASWDEAVQALLRAVVRSYDSGSFTIMQEVYSAFLPDGCDHLRDKLGDHQSPATPAFKSLEAFFLYGRLYEFWWSLSRPCPNSSVWVRAGHRTLSVEPSQQLDTASTEETDPETSQPEPNRPSELDLRLTEEGERMLSTFKELFSEKHASLQNSQRTVAEVQETLAEMIRQHQKSQLCKSTANGPDKNEPEVEAEQPLCSSQSQCKEEKNEPLSLPELTKRLTEANQRMAKFPESIKAWPFPDVLECCLVLLLIRSHFPGCLAQEMQQQAQELLQKYGNTKTYRRHCQTFCM
chain 2: MGQEPRTLPPSPNWYCARCSDAVPGGLFGFAARTSVFLVRVGPGAGESPGTPPFRVIGELVGHTERVSGFTFSHHPGQYNLCATSSDDGTVKIWDVETKTVVTEHALHQHTISTLHWSPRVKDLIVSGDEKGVVFCYWFNRNDSQHLFIEPRTIFCLTCSPHHEDLVAIGYKDGIVVIIDISKKGEVIHRLRGHDDEIHSIAWCPLPGEDCLSINQEETSEEAEITNGNAVAQAPVTKGCYLATGSKDQTIRIWSCSRGRGVMILKLPFLKRRGGGIDPTVKERLWLTLHWPSNQPTQLVSSCFGGELLQWDLTQSWRRKYTLFSASSEGQNHSRIVFNLCPLQTEDDKQLLLSTSMDRDVKCWDIATLECSWTLPSLGGFAYSLAFSSVDIGSLAIGVGDGMIRVWNTLSIKNNYDVKNFWQGVKSKVTALCWHPTKEGCLAFGTDDGKVGLYDTYSNKPPQISSTYHKKTVYTLAWGPPVPPMSLGGEGDRPSLALYSCGGEGIVLQHNPWKLSGEAFDINKLIRDTNSIKYKLPVHTEISWKADGKIMALGNEDGSIEIFQIPNLKLICTIQQHHKLVNTISWHHEHGSQPELSYLMASGSNNAVIYVHNLKTVIESSPESPVTITEPYRTLSGHTAKITSVAWSPHHDGRLVSASYDGTAQVWDALREEPLCNFRGHRGRLLCVAWSPLDPDCIYSGADDFCVHKWLTSMQDHSRPPQGKKSIELEKKRLSQPKAKPKKKKKPTLRTPVKLESIDGNEEESMKENSGPVENGVSDQEGEEQAREPELPCGLAPAVSREPVICTPVSSGFEKSKVTINNKVILLKKEPPKEKPETLIKKRKARSLLPLSTSLDHRSKEELHQDCLVLATAKHSRELNEDVSADVEERFHLGLFTDRATLYRMIDIEGKGHLENGHPELFHQLMLWKGDLKGVLQTAAERGELTDNLVAMAPAAGYHVWLWAVEAFAKQLCFQDQYVKAASHLLSIHKVYEAVELLKSNHFYREAIAIAKARLRPEDPVLKDLYLSWGTVLERDGHYAVAAKCYLGATCAYDAAKVLAKKGDAASLRTAAELAAIVGEDELSASLALRCAQELLLANNWVGAQEALQLHESLQGQRLVFCLLELLSRHLEEKQLSEGKSSSSYHTWNTGTEGPFVERVTAVWKSIFSLDTPEQYQEAFQKLQNIKYPSATNNTPAKQLLLHICHDLTLAVLSQQMASWDEAVQALLRAVVRSYDSGSFTIMQEVYSAFLPDGCDHLRDKLGDHQSPATPAFKSLEAFFLYGRLYEFWWSLSRPCPNSSVWVRAGHRTLSVEPSQQLDTASTEETDPETSQPEPNRPSELDLRLTEEGERMLSTFKELFSEKHASLQNSQRTVAEVQETLAEMIRQHQKSQLCKSTANGPDKNEPEVEAEQPLCSSQSQCKEEKNEPLSLPELTKRLTEANQRMAKFPESIKAWPFPDVLECCLVLLLIRSHFPGCLAQEMQQQAQELLQKYGNTKTYRRHCQTFCM
B2: Xpress-His G5_(845–1287) [not stated] / G5_(1–1508)-FLAG [not stated] (parent complex)
chain 1: ARSLLPLSTSLDHRSKEELHQDCLVLATAKHSRELNEDVSADVEERFHLGLFTDRATLYRMIDIEGKGHLENGHPELFHQLMLWKGDLKGVLQTAAERGELTDNLVAMAPAAGYHVWLWAVEAFAKQLCFQDQYVKAASHLLSIHKVYEAVELLKSNHFYREAIAIAKARLRPEDPVLKDLYLSWGTVLERDGHYAVAAKCYLGATCAYDAAKVLAKKGDAASLRTAAELAAIVGEDELSASLALRCAQELLLANNWVGAQEALQLHESLQGQRLVFCLLELLSRHLEEKQLSEGKSSSSYHTWNTGTEGPFVERVTAVWKSIFSLDTPEQYQEAFQKLQNIKYPSATNNTPAKQLLLHICHDLTLAVLSQQMASWDEAVQALLRAVVRSYDSGSFTIMQEVYSAFLPDGCDHLRDKLGDHQSPATPAFKSLEAFFLYGRLYE
chain 2: B1 chain 2
B3: Xpress-His G5_(1–1287) [not stated] / G5_(1–1508)-FLAG [not stated] (parent complex)
chain 1: MGQEPRTLPPSPNWYCARCSDAVPGGLFGFAARTSVFLVRVGPGAGESPGTPPFRVIGELVGHTERVSGFTFSHHPGQYNLCATSSDDGTVKIWDVETKTVVTEHALHQHTISTLHWSPRVKDLIVSGDEKGVVFCYWFNRNDSQHLFIEPRTIFCLTCSPHHEDLVAIGYKDGIVVIIDISKKGEVIHRLRGHDDEIHSIAWCPLPGEDCLSINQEETSEEAEITNGNAVAQAPVTKGCYLATGSKDQTIRIWSCSRGRGVMILKLPFLKRRGGGIDPTVKERLWLTLHWPSNQPTQLVSSCFGGELLQWDLTQSWRRKYTLFSASSEGQNHSRIVFNLCPLQTEDDKQLLLSTSMDRDVKCWDIATLECSWTLPSLGGFAYSLAFSSVDIGSLAIGVGDGMIRVWNTLSIKNNYDVKNFWQGVKSKVTALCWHPTKEGCLAFGTDDGKVGLYDTYSNKPPQISSTYHKKTVYTLAWGPPVPPMSLGGEGDRPSLALYSCGGEGIVLQHNPWKLSGEAFDINKLIRDTNSIKYKLPVHTEISWKADGKIMALGNEDGSIEIFQIPNLKLICTIQQHHKLVNTISWHHEHGSQPELSYLMASGSNNAVIYVHNLKTVIESSPESPVTITEPYRTLSGHTAKITSVAWSPHHDGRLVSASYDGTAQVWDALREEPLCNFRGHRGRLLCVAWSPLDPDCIYSGADDFCVHKWLTSMQDHSRPPQGKKSIELEKKRLSQPKAKPKKKKKPTLRTPVKLESIDGNEEESMKENSGPVENGVSDQEGEEQAREPELPCGLAPAVSREPVICTPVSSGFEKSKVTINNKVILLKKEPPKEKPETLIKKRKARSLLPLSTSLDHRSKEELHQDCLVLATAKHSRELNEDVSADVEERFHLGLFTDRATLYRMIDIEGKGHLENGHPELFHQLMLWKGDLKGVLQTAAERGELTDNLVAMAPAAGYHVWLWAVEAFAKQLCFQDQYVKAASHLLSIHKVYEAVELLKSNHFYREAIAIAKARLRPEDPVLKDLYLSWGTVLERDGHYAVAAKCYLGATCAYDAAKVLAKKGDAASLRTAAELAAIVGEDELSASLALRCAQELLLANNWVGAQEALQLHESLQGQRLVFCLLELLSRHLEEKQLSEGKSSSSYHTWNTGTEGPFVERVTAVWKSIFSLDTPEQYQEAFQKLQNIKYPSATNNTPAKQLLLHICHDLTLAVLSQQMASWDEAVQALLRAVVRSYDSGSFTIMQEVYSAFLPDGCDHLRDKLGDHQSPATPAFKSLEAFFLYGRLYE
chain 2: B1 chain 2

Variants of: B1
Experiment: pull-down; HEK293 cell lysates; western blot with anti-FLAG and anti-Xpress; n = 3; read off a plot

response	Variant
~0.38 relative intensity (PD/In)	chain 1 A107E

Variants of: B2
Experiment: pull-down; HEK293 cell lysates; western blot with anti-FLAG and anti-Xpress; read off a plot

response	Variant
~0.33 relative intensity (PD/In)	chain 1 A107E

Variants of: B3
Experiment: pull-down; HEK293 cell lysates; western blot with anti-FLAG and anti-Xpress; n = 5; read off a plot

response	Variant
~0.29 relative intensity (PD/In)	chain 1 A951E

— PMC11213948 (2024)
